Results as given in paper PMC13169712.
Square brackets hold non-standard residues; d marks the D form. Ends that are not written are not given here. Hyp = O=C(O)[C@@H]1C[C@@H](O)CN1

Experiments:
16A8 human IgE mAb = assay: ELISA; settings: chain shown with the change; mAb 10 µg/mL (highest point of the titration); parent: est. 3.4; read off a plot
8F3 human IgE mAb = assay: ELISA; settings: chain shown with the change; mAb 10 µg/mL (highest point of the titration); parent: est. 3.6; read off a plot
8F3 human IgE mAb, sequence (chain, as listed by the source, chain 1 of 2): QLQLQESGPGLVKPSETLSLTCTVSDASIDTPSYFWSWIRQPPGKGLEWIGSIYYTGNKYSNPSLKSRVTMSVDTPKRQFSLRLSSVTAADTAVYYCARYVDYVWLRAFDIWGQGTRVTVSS
8F3 human IgE mAb, sequence (chain, as listed by the source, chain 2 of 2): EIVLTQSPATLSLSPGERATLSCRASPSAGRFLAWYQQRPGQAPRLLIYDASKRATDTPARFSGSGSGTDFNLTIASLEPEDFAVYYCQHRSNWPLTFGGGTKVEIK

13D9 human IgE mAb = assay: ELISA; settings: chain shown with the change; mAb 10 µg/mL (highest point of the titration); parent: est. 3.5; read off a plot
13D9 human IgE mAb, sequence (chain, as listed by the source, chain 1 of 2): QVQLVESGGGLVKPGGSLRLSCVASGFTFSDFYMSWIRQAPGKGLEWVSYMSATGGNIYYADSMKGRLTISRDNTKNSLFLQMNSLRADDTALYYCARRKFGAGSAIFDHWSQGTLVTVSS
13D9 human IgE mAb, sequence (chain, as listed by the source, chain 2 of 2): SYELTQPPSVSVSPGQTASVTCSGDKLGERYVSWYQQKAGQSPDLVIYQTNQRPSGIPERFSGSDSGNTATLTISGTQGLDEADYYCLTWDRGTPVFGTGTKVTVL

1H9 human IgE mAb = assay: ELISA; settings: chain shown with the change; mAb 10 µg/mL (highest point of the titration); parent: est. 3.3; read off a plot
1H9 human IgE mAb, sequence (chain, as listed by the source, chain 1 of 2): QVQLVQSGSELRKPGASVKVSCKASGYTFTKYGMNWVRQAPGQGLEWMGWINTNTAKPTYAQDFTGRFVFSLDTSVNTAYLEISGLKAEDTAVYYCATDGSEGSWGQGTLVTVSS
1H9 human IgE mAb, sequence (chain, as listed by the source, chain 2 of 2): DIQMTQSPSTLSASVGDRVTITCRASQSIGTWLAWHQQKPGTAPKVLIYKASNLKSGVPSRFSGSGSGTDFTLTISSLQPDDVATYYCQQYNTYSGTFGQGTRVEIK

[1] = biological target: 38B7 human IgE mAb (human); assay: SPR; Carterra LSA; antibody as ligand, allergen or peptide as analyte; how the antibody was held for these pairs is not told
38B7 human IgE mAb (human), sequence (heavy, as listed by the source, chain 1 of 2): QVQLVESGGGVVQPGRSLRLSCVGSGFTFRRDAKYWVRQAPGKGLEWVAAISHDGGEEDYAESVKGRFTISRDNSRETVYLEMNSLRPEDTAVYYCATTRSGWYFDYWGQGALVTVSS
38B7 human IgE mAb (human), sequence (light, as listed by the source, chain 2 of 2): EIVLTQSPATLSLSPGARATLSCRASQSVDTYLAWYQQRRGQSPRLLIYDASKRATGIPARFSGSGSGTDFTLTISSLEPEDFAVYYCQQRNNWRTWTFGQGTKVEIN

16A8 human IgE mAb, sequence (chain, as listed by the source, chain 1 of 2): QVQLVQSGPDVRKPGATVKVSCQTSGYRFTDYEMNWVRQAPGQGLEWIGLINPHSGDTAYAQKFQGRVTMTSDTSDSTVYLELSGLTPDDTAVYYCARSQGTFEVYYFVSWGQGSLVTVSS
16A8 human IgE mAb, sequence (chain, as listed by the source, chain 2 of 2): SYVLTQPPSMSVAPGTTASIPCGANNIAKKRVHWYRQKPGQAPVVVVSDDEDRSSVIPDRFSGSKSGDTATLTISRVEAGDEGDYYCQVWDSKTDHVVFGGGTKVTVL

Binder	response (16A8 human IgE mAb) [OD 450nm]	response (8F3 human IgE mAb) [OD 450nm]	response (13D9 human IgE mAb) [OD 450nm]	response (1H9 human IgE mAb) [OD 450nm]	Kd [1] [µM]	koff [1] [s⁻¹]	kon [1] [M⁻¹ s⁻¹]
Ara h 6c R90Q; Q91A (protein) SCERQVDRVNLKPCEQHIMQRIMGEQEQYDSYDIRSTRSSDQQQRCCDELNEMENTQGCMCEALQQIMENQCDRLQDQAMVQQFKRELMSLPQQCNFRAPQRCDLDVSGGRC	3.4	3.6	3.5	1.6			
Ara h 6c D19R; E27A; N82A (protein) SCERQVRRVNLKPCAQHIMQRIMGEQEQYDSYDIRSTRSSDQQQRCCDELNEMENTQGCMCEALQQIMEAQCDRLQDRQMVQQFKRELMSLPQQCNFRAPQRCDLDVSGGRC			1.6				
Ara h 6c Q113R; R114E (protein) SCERQVDRVNLKPCEQHIMQRIMGEQEQYDSYDIRSTRSSDQQQRCCDELNEMENTQGCMCEALQQIMENQCDRLQDRQMVQQFKRELMSLPQQCNFRAPRECDLDVSGGRC	2.6		3.5	3.4			
EDSYERDPYS[Hyp]SQD [hydroxylated DPYSPS containing peptide (…^OHSQD)]					0.02	0.00198	101000
EDSYERDPYSPSQD [nonhydroxylated DPYSPS containing peptide (…)]					7.1	0.0887	16900
